What was measured:
[1] = molecular target: recombinant full-length HAX-1 (UniProt O00165 1-279); test: BLI
[2] = molecular target: recombinant full-length ASC (UniProt Q9ULZ3 1-195); test: BLI
recombinant full-length ASC, sequence (Q9ULZ3 whole entry): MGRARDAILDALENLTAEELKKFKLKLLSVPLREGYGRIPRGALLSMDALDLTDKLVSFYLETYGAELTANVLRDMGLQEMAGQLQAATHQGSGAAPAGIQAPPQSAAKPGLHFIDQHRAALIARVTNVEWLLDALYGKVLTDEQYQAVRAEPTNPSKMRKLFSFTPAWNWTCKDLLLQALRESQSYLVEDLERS

recombinant full-length HAX-1, sequence (O00165 whole entry): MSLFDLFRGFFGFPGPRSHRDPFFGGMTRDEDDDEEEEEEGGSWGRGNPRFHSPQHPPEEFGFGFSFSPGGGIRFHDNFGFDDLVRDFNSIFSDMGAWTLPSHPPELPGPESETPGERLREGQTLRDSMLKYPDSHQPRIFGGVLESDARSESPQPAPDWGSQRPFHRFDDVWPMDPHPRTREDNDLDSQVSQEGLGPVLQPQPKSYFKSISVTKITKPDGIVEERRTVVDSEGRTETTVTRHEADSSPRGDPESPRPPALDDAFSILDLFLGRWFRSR

- Kd [1]: 3.38 nM
- Kd [2]: 7.33 nM
B1: recombinant partial NLRP3 1-536aa (domain or fragment)
chain: MKMASTRCKLARYLEDLEDVDLKKFKMHLEDYPPQKGCIPLPRGQTEKADHVDLATLMIDFNGEEKAWAMAVWIFAAINRRDLYEKAKRDEPKWGSDNARVSNPTVICQEDSIEEEWMGLLEYLSRISICKMKKDYRKKYRKYVRSRFQCIEDRNARLGESVSLNKRYTRLRLIKEHRSQQEREQELLAIGKTKTCESPVSPIKMELLFDPDDEHSEPVHTVVFQGAAGIGKTILARKMMLDWASGTLYQDRFDYLFYIHCREVSLVTQRSLGDLIMSCCPDPNPPIHKIVRKPSRILFLMDGFDELQGAFDEHIGPLCTDWQKAERGDILLSSLIRKKLLPEASLLITTRPVALEKLQHLLDHPRHVEILGFSEAKRKEYFFKYFSDEAQARAAFSLIQENEVLFTMCFIPLVCWIVCTGLKQQMESGKSLAQTSKTTTAVYVFFLSSLLQPRGGSQEHGLCAHLWGLCSLAADGIWNQKILFEESDLRNHGLQKADVSAFLRMNLFQKEVDCEKFYSFIHMTFQEFFAAMYYLL
modifications: biotinylated (sites not given)
